Reference: PMC3035457 (Nucleic Acids Research, 2010)

Biological target: T1, MBP-GCM1(167–349) (human, UniProt Q9NP62 167-349)
T1 sequence: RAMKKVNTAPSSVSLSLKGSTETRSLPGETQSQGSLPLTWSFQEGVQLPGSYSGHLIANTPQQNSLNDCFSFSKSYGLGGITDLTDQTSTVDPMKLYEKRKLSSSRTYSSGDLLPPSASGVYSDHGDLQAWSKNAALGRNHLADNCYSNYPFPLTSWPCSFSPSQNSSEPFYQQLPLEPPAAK
Test: pull-down

B1: recombinant DUSP23-FLAG (DUSP23 with a C-terminal FLAG tag) (enzyme)
chain: MGVQPPNFSWVLPGRLAGLALPRLPAHYQFLLDLGVRHLVSLTERGPPHSDSCPGLTLHRLRIPDFCPPAPDQIDRFVQIVDEANARGEAVGVHCALGFGRTGTMLACYLVKERGLAAGDAIAEIRRLRPGSIETYEQEKAVFQFYQRTK
- binding result: binds
